{"source": "patent US20210292385A1", "about": "(WNTRX PHARMACEUTICALS, published 2021)", "molecules": {"B1": {"name": "WX-024 (conjugated with biotin) (peptide)", "peptide": "Ac-LQTLR[S5]IQR[S5]L[2Nal]-NH2", "modifications": "staple 6-10; also: coupled to biotin (site not given here)", "notes": "also called biotinylated WX-024; BCL9 peptide labeled with biotin"}, "B2": {"name": "WX-024 (peptide)", "peptide": "Ac-LQTLR[S5]IQR[S5]L[2Nal]-NH2", "modifications": "staple 6-10; also: tested as trifluoroacetic, acetate and hydrochloric salts"}, "B3": {"name": "WX-021 (peptide)", "peptide": "Ac-LR[S5]IQR[S5]L[2Nal][βAla][βAla]-NH2", "modifications": "staple 3-7", "SMILES": "CC[C@H](C)[C@@H]1NC(=O)[C@@](C)(NC(=O)[C@H](CCCNC(=N)N)NC(=O)[C@H](CC(C)C)NC(C)=O)CCCC=CCCC[C@@](C)(C(=O)N[C@@H](CC(C)C)C(=O)N[C@@H](Cc2ccc3ccccc3c2)C(=O)NCCC(=O)NCCC(N)=O)NC(=O)[C@H](CCCNC(=N)N)NC(=O)[C@H](CCC(N)=O)NC1=O"}, "B4": {"name": "WX-020, biotinylated (ALPHA screen) (peptide)", "peptide": "Ac-LR[S5]IQR[S5]L-NH2", "modifications": "staple 3-7; also: biotinylated with a PEG linker, site not given here", "notes": "The general description of the ALPHA assay says that a biotinylated polypeptide is used"}, "B5": {"name": "WX-020 (peptide)", "peptide": "Ac-LR[S5]IQR[S5]L-NH2", "modifications": "staple 3-7", "SMILES": "CC[C@H](C)[C@@H]1NC(=O)[C@@](C)(NC(=O)[C@H](CCCNC(=N)N)NC(=O)[C@H](CC(C)C)NC(C)=O)CCCC=CCCC[C@@](C)(C(=O)N[C@@H](CC(C)C)C(N)=O)NC(=O)[C@H](CCCNC(=N)N)NC(=O)[C@H](CCC(N)=O)NC1=O"}}, "key": {"[1]": {"target": "β-catenin protein (ALPHA screening assay) (UniProt P35222)", "experiment": "ALPHA screen: biotinylated peptide on streptavidin donor beads, β-catenin on protein A acceptor beads via anti-β-catenin antibody"}, "[2]": {"target": "T1, Histidine-tagged β-catenin (HTRF assay) (UniProt P35222 1-781, limits assumed)", "T1 construct": "also called His-tag protein; not shown: histidine tag", "T1 sequence (looked up)": "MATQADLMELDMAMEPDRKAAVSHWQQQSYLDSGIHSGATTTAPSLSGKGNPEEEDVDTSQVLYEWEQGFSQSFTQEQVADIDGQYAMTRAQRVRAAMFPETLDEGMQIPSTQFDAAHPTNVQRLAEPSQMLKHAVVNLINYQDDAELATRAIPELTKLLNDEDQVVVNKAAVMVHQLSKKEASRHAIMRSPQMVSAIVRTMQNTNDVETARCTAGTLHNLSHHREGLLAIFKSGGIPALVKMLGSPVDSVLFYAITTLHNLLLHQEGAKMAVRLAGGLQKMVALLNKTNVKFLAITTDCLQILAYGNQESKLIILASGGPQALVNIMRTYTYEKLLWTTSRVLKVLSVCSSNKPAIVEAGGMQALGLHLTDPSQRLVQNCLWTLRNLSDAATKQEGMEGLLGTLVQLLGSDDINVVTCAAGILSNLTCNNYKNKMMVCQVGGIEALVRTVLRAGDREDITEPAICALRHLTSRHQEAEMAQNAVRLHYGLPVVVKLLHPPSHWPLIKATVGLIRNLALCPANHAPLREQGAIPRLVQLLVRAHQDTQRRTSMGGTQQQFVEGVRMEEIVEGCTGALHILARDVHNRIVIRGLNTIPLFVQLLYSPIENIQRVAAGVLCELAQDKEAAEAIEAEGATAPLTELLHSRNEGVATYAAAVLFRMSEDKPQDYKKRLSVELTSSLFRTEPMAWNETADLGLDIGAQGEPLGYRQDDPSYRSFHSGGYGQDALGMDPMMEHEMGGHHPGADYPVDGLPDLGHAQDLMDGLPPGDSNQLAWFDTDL", "experiment": "HTRF assay (Cisbio): biotin-labeled peptide, His-tagged β-catenin, Eu-labeled anti-His antibody and SA-XL665"}, "[3]": {"target": "T2, β-catenin in cells (LEF/TCF-bla HCT-116 reporter cells; Colo320DM cells) (UniProt P35222 2-781, limits assumed)", "T2 sequence (looked up)": "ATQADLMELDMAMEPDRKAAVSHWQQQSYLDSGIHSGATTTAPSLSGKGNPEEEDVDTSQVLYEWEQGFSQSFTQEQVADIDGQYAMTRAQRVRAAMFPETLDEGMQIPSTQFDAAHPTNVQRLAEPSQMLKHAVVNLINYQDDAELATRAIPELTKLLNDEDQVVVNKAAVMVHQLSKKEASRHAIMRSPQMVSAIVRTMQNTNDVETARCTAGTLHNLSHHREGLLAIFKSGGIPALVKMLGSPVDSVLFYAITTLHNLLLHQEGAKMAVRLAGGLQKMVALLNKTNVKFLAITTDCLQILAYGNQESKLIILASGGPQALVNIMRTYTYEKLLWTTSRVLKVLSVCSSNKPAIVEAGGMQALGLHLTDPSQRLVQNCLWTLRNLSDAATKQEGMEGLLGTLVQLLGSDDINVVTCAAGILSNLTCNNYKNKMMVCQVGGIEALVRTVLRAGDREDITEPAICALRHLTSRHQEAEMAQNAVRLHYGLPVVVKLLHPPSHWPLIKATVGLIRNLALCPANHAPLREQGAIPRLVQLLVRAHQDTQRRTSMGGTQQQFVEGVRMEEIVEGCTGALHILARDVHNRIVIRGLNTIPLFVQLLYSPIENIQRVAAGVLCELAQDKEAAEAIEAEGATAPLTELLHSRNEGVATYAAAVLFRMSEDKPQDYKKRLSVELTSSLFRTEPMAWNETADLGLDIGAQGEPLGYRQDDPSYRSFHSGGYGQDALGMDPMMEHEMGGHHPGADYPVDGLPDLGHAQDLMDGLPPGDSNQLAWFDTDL", "experiment": "cell-based or functional assay"}, "[4]": {"target": "T2, β-catenin in cells (LEF/TCF-bla HCT-116 …)", "experiment": "cell-based or functional assay", "remark": "listed apart in the source"}, "[5]": {"target": "T3, β-catenin protein (ALPHA screening assay) (UniProt P35222 1-781, limits assumed)", "T3 sequence (looked up)": "T1 sequence (looked up)", "experiment": "ALPHA screen: biotinylated peptide on streptavidin donor beads, β-catenin on protein A acceptor beads via anti-β-catenin antibody"}}, "note": "Bridge positions count the residues as written; N and C are the ends. Square brackets hold non-standard residues; d marks the D form. 2Nal = N[C@@H](Cc1ccc2ccccc2c1)C(=O)O; S5 = C=CCCC[C@](C)(N)C(=O)O; βAla = NCCC(=O)O", "data": [{"molecule": "full-length HD2 domain of human BCL9 protein (peptide)", "values": [{"measurement": "Kd", "setting": "[1]", "result": 20, "unit": "nM"}, {"measurement": "signal versus background ratio", "setting": "[1]", "result": 180, "unit": "fold"}]}, {"molecule": "B1", "values": [{"measurement": "Kd", "setting": "[2]", "result": 4.21, "unit": "nM"}]}, {"molecule": "B2", "values": [{"measurement": "IC50, GeneBLAzer beta-lactamase reporter assay, LEF-TCF-bla HCT116 cells", "setting": "[3]", "result": 191, "unit": "nM"}, {"measurement": "IC50, cell-based Wnt transcription inhibition assay, acetate salt form of WX-024", "setting": "[4]", "result": 292, "unit": "nM"}, {"measurement": "IC50, cell-based Wnt transcription inhibition assay, hydrochloric salt of WX-024", "setting": "[4]", "result": 313, "unit": "nM"}]}, {"molecule": "B3", "values": [{"measurement": "IC50, GeneBLAzer beta-lactamase reporter assay, LEF/TCF-bla HCT-116 cells", "setting": "[4]", "result": 764, "unit": "nM"}]}, {"molecule": "B4", "values": [{"measurement": "Kd", "setting": "[5]", "result": 80, "unit": "nM"}]}, {"molecule": "B5", "values": [{"measurement": "IC50, CellTiterGlo cell viability assay, Colo320DM cells", "setting": "[4]", "result": 12400, "unit": "nM"}, {"measurement": "IC50, Wnt transcription assay (GeneBLAzer reporter, procedures of Example 4.1)", "setting": "[4]", "result": 1580, "unit": "nM"}]}]}
